Test results: PMC11578589

What was measured:
[1] = tested on: IGF2BP2 KH34 (IGF2BP2KH34) (Homo sapiens); experiment: MST; conditions: MST: 50 mM phosphate pH 7.0, 150 mM NaCl, 0.05% Tween 20, room temperature, 20 min incubation, 250 nM labeled RNA
[2] = tested on: IGF2BP2 RRM (IGF2BP2RRM) (Homo sapiens); experiment: MST; conditions: MST: 50 mM phosphate pH 7.0, 150 mM NaCl, 0.05% Tween 20, room temperature, 20 min incubation, 250 nM labeled RNA

Substance | Kd [1] | Kd [2]
ZIKV 3' NTR | 418 nM | 1600 nM
ZIKV 5' NTR | 203 nM | –
